Data reported in PMC7438317.

Target: GST-(PreScission site)-CYK-4 aa 146–190, phosphorylated by PLK-1 (C. elegans)
Assay: pull-down

fold increase in binding against the unphosphorylated WT CYK-4 fragment: 4 fold
Substance: ECT-2 aa 1–320 (ECT-2 BRCT module) (domain or fragment)
